Measurements: patent publication US20180072806A1 (SHIRE HUMAN GENETIC THERAPIES, published 2018)
Substitutions are numbered along the chain they refer to.

B1: anti-Flt-1 antibody 21B3 (antibody, V domains shown)
VH: ELQLVESGGGLVQPGGSLRLSCAASGFTFRDYSMSWVRQAPGKGLEWVSAISWNGDSTYYAESMKGRFTISRDNAKNTLYLQMNSLKSEDTAVYYCAKSWATPIESLYYYGMDYWGKGTLVTVSS
VL: SYELTQSPSVSVALRQTAKITCGGNNIGSQTAQWYQQKPGQAPVLVIYANNRRPSGIPERFSGSKSGNTATLTISGAQAEDEADYYCQVWDGSTQAIVFGGGTHLTVL
notes: VL is LC_21B3; IgG with wild-type Fc; also called 21B3 WT; clone 21B3
B2: anti-Flt-1 antibody 27H9 (antibody, human IgG1, lambda, V domains shown)
VH: B1 VH with L2V, V5L, M64A, A75S, K87R, S88A, M112S, K117Q
VL: SYELTQPLSVSVALRQTARITCGGNNIGSQTAQWYQQKPGQAPVLVIYANNRRPSGIPERFSGSKSGNTATLTISRAQAEDEADYYCQVWDESTQAIVFGGGTKLTVLG
notes: also called 27H9 WT; 27H9 WT 23/07
B3: anti-Flt-1 antibody 27H4 (antibody, human IgG1, lambda, V domains shown)
VH: B1 VH with M64L, K87R, S88A, M112S, K117Q
VL: B2 VL with R15G, D91E, E92D
B4: anti-Flt-1 antibody 27H6 (antibody, human IgG1, lambda, V domains shown)
VH: B1 VH with R30S, M34A, N54S, M64V, S71F, A75S, K87R, S88A, M112S, K117Q
VL: B2 VL with T17A, R19K, E80G, E92G

Key:
[1] = biological target: T1, recombinant human soluble Flt-1 (human, UniProt P17948 27-758); test: human competition ELISA with human sFlt-1 and VEGF; blocked ligand VEGF; antibody titrated
T1 construct: Recombinant soluble form (immunogen bought from ABCAM); also called human sFlt-1; sFlt-1

[2] = biological target: T1, recombinant human soluble Flt-1; test: VEGF:sFlt1 binding assay (competition ELISA); blocked ligand VEGF; antibody titrated

T1 sequence (P17948 27-758 limits assumed): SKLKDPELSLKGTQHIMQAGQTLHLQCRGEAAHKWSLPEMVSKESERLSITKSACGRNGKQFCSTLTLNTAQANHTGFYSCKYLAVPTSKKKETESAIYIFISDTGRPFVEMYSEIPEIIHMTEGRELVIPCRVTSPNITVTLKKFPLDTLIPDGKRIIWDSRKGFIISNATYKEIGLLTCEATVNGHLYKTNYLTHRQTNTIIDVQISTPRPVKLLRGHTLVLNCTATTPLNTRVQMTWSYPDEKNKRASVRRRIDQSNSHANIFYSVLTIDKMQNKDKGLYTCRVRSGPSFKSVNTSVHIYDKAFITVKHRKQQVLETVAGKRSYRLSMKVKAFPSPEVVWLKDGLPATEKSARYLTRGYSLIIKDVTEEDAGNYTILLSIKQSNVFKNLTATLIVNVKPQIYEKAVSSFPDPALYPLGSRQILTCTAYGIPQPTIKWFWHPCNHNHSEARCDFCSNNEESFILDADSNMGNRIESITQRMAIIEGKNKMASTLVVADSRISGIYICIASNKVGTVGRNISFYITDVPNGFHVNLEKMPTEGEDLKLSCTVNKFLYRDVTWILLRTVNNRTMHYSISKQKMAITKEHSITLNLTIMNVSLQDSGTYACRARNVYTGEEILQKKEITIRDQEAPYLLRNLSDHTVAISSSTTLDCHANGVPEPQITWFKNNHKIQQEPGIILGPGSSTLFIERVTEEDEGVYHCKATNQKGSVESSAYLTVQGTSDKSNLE

Binder | IC50 (read off the curve) [1] [ng/mL] | IC50 (read off the curve) [2] [ng/mL]
B1 | ~3 | 
B2 |  | ~10
B3 |  | ~10
B4 |  | ~6
